This series is described as follows: yeast display, Sf9 membrane polyspecificity reagent, FACS + sequencing; frameworks hold sequencing errors. The gist of the method: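 Genes from sorted yeast were amplified by colony PCR, read by MiSeq 2 × 250 sequencing and filtered on CDR length. These cells carried a synthetic nanobody library in Saccharomyces cerevisiae BJ5465 and were sorted by FACS into low and high (top ~1%) gates on anti-HA and streptavidin fluorescence. Polyreactivity is labelled according to the gate of origin.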
As to “QVQLVESGGGLVQAGGSLRLSCAASGRIFPDNAMGWYRQAPGKERELVASITSGASTNYADSVKGRFTISRDNAKNTVFLQMNSLKPEDTAVYYCAAGYSYYDDYDYWGQGTQVTVSS”, the “polyreactivity (PSR sort gate)” value is “high polyreactivity”. The result for “QVQLVESGGGLVQAGGSLRLSCAASGRIFPDNAMGWYRQARGKERELVAAMTYSGGSTSYADSVKGRFTISRDNAKNTVYLQMNSLKPEDTAVYYCNKGGGTSYDYVRVDKYPGDYWGQGTQVTVSS” reads “low polyreactivity”; that for “QVQLVESGGGLVQAGGSLRLSCAASGRIFPENAMGWYRQAPGKERELVAAINNNDGDTYYADSVKGRFTISRDNAKNTVYLQMNSLKPEDTAVYYCAADEAYWLSYVWGIGYDYWGQGTQVTVSS”, “low polyreactivity”.

For “QVQLVESGGGLVQAGGSLRLSCAASGRIFPEYAMGWYRQAPGKERELVAAITSSGRTYYADSVKGRFTISRDNAKNTVYLQMNSLKPEDTAVYYCAASFRRYYRWDYGFWGQGTQVTVSS”, the “polyreactivity (PSR sort gate)” value is “high polyreactivity”. For “QVQLVESGGGLVQAGGSLRLSCAASGRIFPGKAMGWYRQAPGKEREFVASINWSRGSTFYADSVKGRFTISRDNAKNTVYLQMNRLIPEDTAVYYCSARTFGYYRSRSYNYWGQGTQVTVSS”, the “polyreactivity (PSR sort gate)” value was “high polyreactivity”.

On to “QVQLVESGGGLVQAGGSLRLSCAASGRIFPGYAMGWYRQAPGKERELVASISSGGRTYYADSVKGRFTISRDNAKNTVYLQMNSLIPEDTAVYYCNSRHSSYSFRYDYWGQGTQVTVSS”, for which the “polyreactivity (PSR sort gate)” value was “low polyreactivity”. As to “QVQLVESGGGLVQAGGSLRLSCAASGRIFPGYTMGWYRQAPGKERELVAGISRSGGRTYYADSVKGRFTISRDNAKNTVYLQMNSLKPEDTAVYYCADDGYPGRRYTGMDYWGQGTQVTVSS”, the “polyreactivity (PSR sort gate)” value is on record as “high polyreactivity”. For “QVQLVESGGGLVQAGGSLRLSCAASGRIFPHYSMGWYRQAPGKERELVAANSWSGSSTYYADSVKGRFTISRDNAMNTVYLQMNSLKPEDTAVYYCNAVRRGIGYDYGYWGQGTQVTVSS”, the “polyreactivity (PSR sort gate)” value is reported as “high polyreactivity”. In the case of “QVQLVESGGGLVQAGGSLRLSCAASGRIFPKYAMGWYSQAPGKERELVAGITKRVGSTYYADSVKGRFTISRDNAKNTVYLQMNSLKPDDTAVYYCAADYRYLIDYLDPEKEGMDYWGQGTQVTVSS”, the “polyreactivity (PSR sort gate)” value is listed as “low polyreactivity”. As for “QVQLVESGGGLVQAGGSLRLSCAASGRIFPLYAMGWYRKAPGKERELVAAISYSGGSTYYADSVKGRFTISRDNAKNTVYLQMISLKPEDTSVYYCAAQTARVSYRMGYWGQGTQVTVSS”, the “polyreactivity (PSR sort gate)” value is listed as “high polyreactivity”.

As for “QVQLVESGGGLVQAGGSLRLSCAASGRIFPLYAMGWYRQAPGKERELVAAITWRAGITYYADSVKGRFTISRDNAKNTVYLQMNSLKPEDTAVYYCAARFVRGRGFAYGYWGQGTQVTVSS”, the “polyreactivity (PSR sort gate)” value was “high polyreactivity”. Consider “QVQLVESGGGLVQAGGSLRLSCAASGRIFPLYAMGWYRQAPGKERELVARITYSGGSTYYADSVKGRFTISRDNAKNTVYLQMNSLKPEDTAVYYCAKDTYGRSTRNGYWGQGTQVTVSS”, for which the “polyreactivity (PSR sort gate)” value is recorded as “low polyreactivity”. The result for “QVQLVESGGGLVQAGGSLRLSCAASGRIFPPYDMGWYRQAPGKETELVAAISYRGGSTYYADSVKGRFTISRDNAKNTVYLQMNSLKPEVTAVYYCNVGSRGGWDASDYDYWGQCTQVTVSS” reads “high polyreactivity”; that for “QVQLVESGGGLVQAGGSLRLSCAASGRIFPRNAMGWYRQAPGKERELVAAISSGGGSTYYADSVKGRFTISRDNAKNTVYLQMNSLKPEDTAVYYCAKRAGWAGWYYRNDYWGQGTQVTVSS”, “high polyreactivity”; that for “QVQLVESGGGLVQAGGSLRLSCAASGRIFPRNAMGWYRQAPGKERELVASITSGGSTNYADSVKGRFTNSRDNAKNTVYLQMNSLKPEDTAVYSCAALYRQVTSPYRYYYWGQGTQVTVSS”, “high polyreactivity”. Regarding “QVQLVESGGGLVQAGGSLRLSCAASGRIFPRNTMGWYRQAPGKERELVAAISQSGGRTYYADSVKGRFTISRDYAKNTVYLQMNSLKPEDTAVYYCAAREYRYDMYYWGQGTQVTVSS”, the “polyreactivity (PSR sort gate)” value is on record as “high polyreactivity”. For “QVQLVESGGGLVQAGGSLRLSCAASGRIFPRYAMGWYRQAPGKERELVARITRRGGITYYADSVKGRFTISRDNAKNSVYLQMNSLKPEDTAVYYCNVDYYRGGDFSYGYDYWGQGTQVTVSS”, the “polyreactivity (PSR sort gate)” value is “high polyreactivity”.

Take “QVQLVESGGGLVQAGGSLRLSCAASGRIFPRYAMGWYRQAPGKERELVARITRRGGITYYADSVKGRFTISRDNAKNTVYLQRNSLIPEDTAVYYCNVDYYSGGEFSYGYDYWGQGTQVTVSS”: the “polyreactivity (PSR sort gate)” value is recorded as “high polyreactivity”. In the case of “QVQLVESGGGLVQAGGSLRLSCAASGRIFPRYAMGWYRQAPGKERELVASISGTGSRTYYADSVKGRFTISRDNAKNTVYLQMNSLKPEDTAVYYCAAYSFRKLDYYWGQGTQVTVSS”, the “polyreactivity (PSR sort gate)” value is reported as “high polyreactivity”. For “QVQLVESGGGLVQAGGSLRLSCAASGRIFPTYTMGWYRQAPGKERELVAAIRRGGGRTYYADSVKGRFTISRDNAKNTVYLQMNSLKPEDTAVYYCAAPFYRQSLIEYDYWGQGTQVTVSS”, the “polyreactivity (PSR sort gate)” value is given as “high polyreactivity”. Take “QVQLVESGGGLVQAGGSLRLSCAASGRIFPTYTMGWYRQAPGKERELVAAIRRGGGRTYYADSVKGRFTISRDNAKNTVYLQMNSLKPEDTAVYYCNKDVYGYSRTGPRGYDYWGQGTQVTVSS”: the “polyreactivity (PSR sort gate)” value is listed as “high polyreactivity”. The result for “QVQLVESGGGLVQAGGSLRLSCAASGRIFPTYTMGWYRQAPGKERELVAHINRGGGSTYYADSVKGRFTISRDNAKYTVYLQMNSLKPEDTAVYYCAVDTYAYRGVSYWSERTYYYWGQGTQVTVSS” reads “low polyreactivity”; that for “QVQLVESGGGLVQAGGSLRLSCAASGRIFPVNAMGWYRQAPGKERELVARISWRGGTYYADSVKGRFTISRDNAKNTVYLQMNSLKPEDTAVYYCAATLPSTSYWYHYGYWGQGTQVTVSS”, “high polyreactivity”.

Regarding “QVQLVESGGGLVQAGGSLRLSCAASGRIFPVYAMGWYRQAPGKERELVATISYSGSSTYYADSVKGRFTISRDNAKNTVYLQMNSLKPEDTAVYYCNADAFGPPGVQYYYWGQGTQVTVSS”, the “polyreactivity (PSR sort gate)” value is on record as “low polyreactivity”. The result for “QVQLVESGGGLVQAGGSLRLSCAASGRIFPVYVMGSYREAPGKEREFVASISWRGGSTFYADSVKGRFTISRDNAKNTVYLQMNSLKPEDTAVYYCAADYWSSDSSRGTMYYWGQGTQVTVSS” reads “low polyreactivity”; that for “QVQLVESGGGLVQAGGSLRLSCAASGRIFPWNAMGWYRQAPGKERELVAAISFSAGRTYYADSVKGRFTISRDNAKTTVYLQMTSLKPEDTAVYFCTKASYWGSGFDYWGQGTQVTVSS”, “low polyreactivity”; that for “QVQLVESGGGLVQAGGSLRLSCAASGRIFPWNDMGWYRQAPGKERELVAAITYRGGRTYYADSVKGRFTISRDNAKNTVYLQMNSLKPEDTAVYYCAKTRYFSVGPHWDYYYWGQGTQVTVSS”, “high polyreactivity”. The result for “QVQLVESGGGLVQAGGSLRLSCAASGRIFPWYAMGWYRQAPGRVREFLAVISRSGGSTYYADSVKGRFTISRDNAKNTVYLQMNSLKPEDTAVYYCAADGKFEYDYWGQGTQVTVSS” reads “low polyreactivity”; that for “QVQLVESGGGLVQAGGSLRLSCAASGRIFPYCAMGWYRQAPGKEREFVAAITSSGGSTYYADSVKGRFTISRDNAKNTVYLQMNSLKREDTAVYFCFAVRHYALYAGRPYDYWGQGTEVTVSS”, “low polyreactivity”. In the case of “QVQLVESGGGLVQAGGSLRLSCAASGRIFPYNAMGWSRQAPGKERELVASITSGGGSTYYADSVKGRFTISRDNAKNTVYLQMKSLKPEDTAVYYCSTRGYAWSSDKFGYWGQGTQVTVSS”, the “polyreactivity (PSR sort gate)” value is on record as “high polyreactivity”.

Take “QVQLVESGGGLVQAGGSLRLSCAASGRIFPYNAMGWYRHAPGKERELVAAITWSGGRTYYADSVKGRFTISRDNAKNTVYLQMNSLKPEDTAVYYCAASYRGRTNDYWGQGTQVTVSS”: the “polyreactivity (PSR sort gate)” value is given as “high polyreactivity”.

Regarding “QVQLVESGGGLVQAGGSLRLSCAASGRIFPYNAMGWYRQAPGKERELVAAISGRGGSTYYADSVKGRFTISRDNAKNTVYLQMNSLKPEDTAVYYCAKRYVYPGAKHRFRGYDYWGQGTQVTVSS”, the “polyreactivity (PSR sort gate)” value is reported as “high polyreactivity”. With “QVQLVESGGGLVQAGGSLRLSCAASGRIFPYYAMGWYRQAPGKERELVAAISLSGGSTYYADSVKGRFTISRDNAKNTVYLQMNSLKPEDTAVYYCNAVASTYGYYWYPGLGYDYWGQGTQVTVSS”, the “polyreactivity (PSR sort gate)” value is “low polyreactivity”.

As to “QVQLVESGGGLVQAGGSLRLSCAASGRIFPYYAMGWYRQAPGKERELVAAISQSGGRTYYADSVKGRFTISRDNAKNTVYLQMNSLKPEDTAVYYCIAYTYSSGYDYWGQGTQVTVSS”, the “polyreactivity (PSR sort gate)” value is on record as “high polyreactivity”. Regarding “QVQLVESGGGLVQAGGSLRLSCAASGRIFPYYAMGWYRQAPGKERELVAAISRSGGRTYYADSVKGRFTISRDNAKNTVYLQMNSLKPEDTAVYYCATPSKALPPHCRAILDYWGQGTQVTVSS”, the “polyreactivity (PSR sort gate)” value was “high polyreactivity”.

On to “QVQLVESGGGLVQAGGSLRLSCAASGRIFPYYAMGWYRQAPGKERELVATISTAGSTNYADSVKGRFTISRDNAKNTVYLQMNSLKPEDTAVYYCATRNTWYHRGYDYWGQGTQVTVSS”, for which the “polyreactivity (PSR sort gate)” value was “low polyreactivity”. Turning to “QVQLVESGGGLVQAGGSLRLSCAASGRIFPYYDMGWYRQAPGKERELVAGITTSGGTTYADSVKGRFTISRDNAKNTVYLQMNSLKTEDTAVYYCNKLRLRLSRWTYDYWGHGTQVTVSS”, the “polyreactivity (PSR sort gate)” value is reported as “low polyreactivity”. On to “QVQLVESGGGLVQAGGSLRLSCAASGRIFQFYAMGWYRQAPGKERELVAAITTGGSTKYADSVKGRFTISRDNAKNTVYLQMNSLKPEDTAVYYCAARAHYYVYRPGIRRYDYWGQGTQVTVSS”, for which the “polyreactivity (PSR sort gate)” value is “high polyreactivity”. With “QVQLVESGGGLVQAGGSLRLSCAASGRIFQFYTMGWYRQAPGKERELVASISSAGSTNYADSVKGRFTISRDNAKNTVYLQMNSLKPEDTAVYYCRYTYYWMGYWGQGTQVTVSS”, the “polyreactivity (PSR sort gate)” value is on record as “high polyreactivity”. In the case of “QVQLVESGGGLVQAGGSLRLSCAASGRIFQGYAMGWYRQAPGKERELVASIRTGGTTNYADSVKGRFTISRDNAKNTVYLQMNRLKPEDTAVYYCNRGYYSYYGGYYYWGQGTQVTVSS”, the “polyreactivity (PSR sort gate)” value was “high polyreactivity”.

For the origin of these results see the nanobody polyreactivity screen of Harvey et al. (2022).
